Numbering of substitutions follows the chain as printed.
B1: Nb20 (VHH)
VHH: QVQLVESGGGLVQAGGSLRLSCAVSGAGAHRVGWFRRAPGKEREFVAAIGASGGMTNYLDSVKGRFTISRDNAKNTIYLQMNSLKPQDTAVYYCAARDIETAEYIYWGQGTQVTVSS
B2: Nb21 (VHH)
VHH: B1 VHH with A27L, S52N, M55N, I105T

Columns and labels:
[1] = target: T1, SARS-CoV-2 spike protein receptor binding domain (RBD) (SARS-CoV-2, UniProt P0DTC2); assay: SPR; settings: both partners purified
[2] = target: T1, SARS-CoV-2 spike protein receptor …; assay: cell-based or functional assay

Row | Binder | Kd [1] | IC50 of neutralisation, pseudotyped SARS-CoV-2 (luciferase reporter); RBD-hACE2 is the pair interfered with [2]
1 | B1 | 0.0104 nM | 0.102 nM
2 | B2 | – | 0.045 nM
